{
  "source": "patent US20210386829A1",
  "about": "“COMPOSITIONS AND METHODS FOR MODULATING CGRP SIGNALING TO REGULATE INNATE LYMPHOID CELL INFLAMMATORY RESPONSES” (The Broad Institute, Inc., priority 2018, published 2021)",
  "molecules": {"B1": {"name": "IL-33: alarmin cytokine which activates ILC2s and induces their proliferation; used as stimulus (protein, UniProt Q8BVZ5 1-266, looked up)", "Interleukin-33": "MRPRMKYSNSKISPAKFSSTAGEALVPPCKIRRSQQKTKEFCHVYCMRLRSGLTIRKETSYFRKEPTKRYSLKSGTKHEENFSAYPRDSRKRSLLGSIQAFAASVDTLSIQGTSLLTQSPASLSTYNDQSVSFVLENGCYVINVDDSGKDQEQDQVLLRYYESPCPASQSGDGVDGKKLMVNMSPIKDTDIWLHANDKDYSVELQRGDVSPPEQAFFVLHKKSSDFVSFECKNLPGTYIGVKDNQLALVEEKDESCNNIMFKLSKI"}},
  "key": {"[1]": {"system": "lung ILCs", "assay": "culture of sort-purified lung ILCs with IL-7, IL-33 or IL-25+NMU with or without CGRP (qPCR, LegendPlex, intracellular cytokine staining)", "assay_type": "cell-based, mouse", "conditions": "short-term (8 hours) IL-33 alone, no CGRP", "procedure": "(§1) ILC in vitro culture. For in vitro experiments 5,000 ILCs/well were cultured in a 96 well round bottom plate with 20 ng/ml IL-7 (R&D Systems), 200 ng/ml IL-25 (R&D Systems) or 20 ng/ml, 2 ng/ml or 0.2 ng/ml IL-33 (BioLegend) with or without 1 μg/ml Neuromedin U (US Biological). In some cases purified CD90.2^+ lung cells were first labeled with CellTrace Violet (Thermo Fisher Scientific), then sorted as described above, and cultured for 3 days under the indicated conditions.\nQuantitative real-time PCR. RNA was isolated using RNeasy Plus Mini Kit (Qiagen) and reverse transcribed to cDNA with iScript cDNA Synthesis Kit (Bio-Rad). Gene expression was analyzed by quantitative real-time PCR on a ViiA7 System (Thermo Fisher Scientific) using TaqMan Fast Advanced Master Mix (Thermo Fisher Scientific) with the following primer/probe sets: Il5 (Mm00439646_m1), Il13 (Mm00434204_m1), Il17rb (Mm00444709_m1), Nmur1 (Mm04207994_m1), Nmur2 (Mm00600704_m1), Nmu (Mm00479868_m1) and Actb (Applied Biosystems). Expression values were calculated relative to Actb detected in the same sample by duplex qPCR.\nCytokine quantification. Cytokine concentrations in BAL fluid, lung and supernatant of in vitro ILC cultures were analyzed by the LegendPlex Mouse Th Cytokine Panel (13-plex) (BioLegend) according to the manufacturer's instructions and analyzed on a FACS Calibur (BD Biosciences).\nCulture of innate lymphoid cells. Sort-purified innate lymphoid cells (ILCs) were cultured under sterile conditions in complete medium in a humidified incubator at 37° C. and 10% CO2. ILCs were plated at a density of 3,000-5,000 ILCs per well in a 96 well round-bottom plate in cell culture medium with 20 ng/ml IL-7. Depending on the experiment, different combinations of 200 ng/ml IL-25, 200 ng/ml IL-33, 1 ug/ml NMU and 100 nM CGRP were added either at start or after overnight culture with 20 ng/ml IL-7. […]\nFor flow cytometric analysis, lung cells were transferred into a 96 well V-bottom plate and stained with surface antibodies for 20 min at 4° C. in the dark. Cells were washed twice with DPBS containing 2% fetal bovine serum and transferred into 1.2 ml tubes for analysis by flow cytometry. For intracellular cytokine staining, cells were incubated in complete cell culture medium with 50 ng/ml phorbol 12-myristate 13-acetate (Sigma-Aldrich), 1 uM ionomycin (Sigma-Aldrich) and GolgiStop (Cat #554724; BD Biosciences) in a humidified incubator at 37° C. and 10% CO2. After 5 hours, cells were transferred into 96 well V-bottom plate, stained with Fixable Viability Dye eFluor 506 (Cat #65-0866-14; Thermo Fisher) and surface antibodies for 20 min at 4° C. in the dark and washed twice with DPBS containing 2% fetal bovine serum. Then, cells were incubated with BD Cytofix/Cytoperm Buffer (Cat #51-2090KZ; BD Biosciences) for 20 min, followed by a wash with BD Perm/Wash Buffer (Cat #51-2091KZ; BD Biosciences). Subsequently, cells were incubated with antibodies targeting intracellular proteins diluted in BD Perm/Wash Buffer for 20 min and after two wash steps, transferred into 1.2 ml tubes for analysis by flow cytometry. For ki67 staining, cells were stained for surface antibodies as described above, fixed with a solution of Fixation/Permeabilization Concentrate (Cat #00-5123-43; Invitrogen) and Fixation/Perm Diluent (Cat #00-5223-56; Invitrogen) for 20 min, washed with Permeabilization Buffer (Cat #00-8333-56; Invitrogen). Then, cells were incubated with ki67 antibody diluted in Permeabilization Buffer for 20 min, washed and transferred into FACS tubes. Cells were analyzed on a BD LSRFortessa (BD Biosciences) flow cytometer with 5 lasers (355 nm, 405 nm, 488 nm, 561 nm and 640 nm). Data was analyzed using FlowJo v10.5.0 software and cell populations were gated as described previously (Wallrapp 2017).\nRNA isolation and cDNA synthesis. […]"}, "[2]": {"system": "lung ILCs", "assay": "CellTrace Violet proliferation assay of sort-purified lung ILCs", "assay_type": "cell-based, mouse", "conditions": "3 days", "procedure": "as §1\nProliferation assay. Lung cells were isolated and enriched for CD90.2 cells as described above, followed by labeling with CellTrace Violet (Cat #C34557; Thermo Fisher Scientific) according to manufacturer's instructions and subsequently stained with antibodies. After 3-day culture of sort-purified ILCs with 20 ng/ml IL-7 either alone or in combination with 200 ng/ml IL-33, 100 pM CGRP or 100 nM CGRP followed by staining, expression of CellTrace Violet in live (7AAD−) ILCs was analyzed on a BD LSRFortessa (BD Biosciences)."}},
  "data": [
    {"molecule": "B1", "values": [
      {"measurement": "frequency of IL-13-positive ILC2s (intracellular cytokine staining)", "setting": "[1]", "result": "~13", "unit": "%"},
      {"measurement": "ILC2 proliferation", "setting": "[2]; IL-7+IL-33 vs IL-7 alone, absent CGRP", "result": "induced significant ILC2 proliferation"},
      {"measurement": "IL-33-activated ILCs that divided at least once", "setting": "[2]; IL-7+IL-33 without CGRP", "result": "approximately 55%"}
    ]}
  ]
}
